{"source": "paper PMC3017672", "about": "(Journal of molecular biology, 2010)", "proteins": {"B1": {"name": "bacteriophage 80α capsid protein gp47 (natural protein, Staphylococcus aureus bacteriophage 80α, UniProt A4ZFB3 15-324, looked up)", "chain": "ASNNVKPQVFNPDNVMMHEKKDGTLMNEFTTPILQEVMENSKIMQLGKYEPMEGTEKKFTFWADKPGAYWVGEGQKIETSKATWVNATMRAFKLGVILPVTKEFLNYTYSQFFEEMKPMIAEAFYKKFDEAGILNQGNNPFGKSIAQSIEKTNKVIKGDFTQDNIIDLEALLEDDELEANAFISKTQNRSLLRKIVDPETKERIYDRNSDSLDGLPVVNLKSSNLKRGELITGDFDKLIYGIPQLIEYKIDETAQLSTVKNEDGTPVNLFEQDMVALRATMHVALHIADDKAFAKLVPADKRTDSVPGEV"}}, "molecular_target": "the molecule itself", "experiment": "cryo-EM structure", "data": [{"protein": "B1", "values": [{"measurement": "stoichiometry N", "value": 420, "unit": "copies"}]}]}
